Measured values: PMC4361737 (The Journal of investigative dermatology, 2013)

B1: Fras1 CSPG (domain or fragment)
chain: TPSLHVNGSLTLGIGSMKPLDFSLLNIQHQDGRVEDLLFHVVSTPTNGQLLLSRNGKEVQLEKAGHFSWKDVNEKKVRFVHSKEKLRKGYFSLKISDQQFFSEPQLINIQAFSTQAPYVLRNEVLHVSKGERATITTQLLDIRDDDNPQDVVVNVLDPPLHGQLLQMPPAPAASIYQFHLDELSRGLLLYAHDGSDSTSDIIVFQANDGHSFQNILFHVKNIPKNDRALRLVTNSMVWVPEGGMLKITNRILKAQAPGVRADDIIYKITHSRPQFGEVVLLMNLPADSPAGPAEEGHHLPDGRMATPISTFTQQDIDDGVVWYRHLGAPTQSDSFRFQVSSATSAQEHLESHMFNIAILPQAPEAPKLSLGTSLHMTAREDGLSVIQPQSLSFVKAESPSGKIIYNITVPLHPNQGIIEHRDRPHSPIQYFTQEDINQGQIMYRPPVAPPHLQEIMAFSFAGLPESVKFYFTVSDGQHTSPEMALTIHLLHSDLQPPAFQVKAPLLEVSPGGRTSLGLQLLVRDAQVVPEELFFQLQKSPQHGMLVKYTAKSSVTMAAGDTFTYDEVERNVLQYVHDGSSAWEDSLEISVTDGLTVTTSEVKVEVSPSENRGPRLAPGSSLSMTVASQHTAIITRSHLAYVDDSSSDPEIWIRLSSLPLYGVLFRSSGPDMDELSGDSNFTMEDINKKNIRYSAVFETDGHSVTDGFHFSVSDMDGNHVDNQVFTITVTPAENPPHIIAFADLITVDEGGRAPLSLHHFFATEDQDNLQDDAVIKLSALPKYGCIENTGTGDRFGPGANSELEASFPIQDVLENYIYYFQSVHESIEPTHDVFSFYVSDGSGRSEIHSINITIERKNDEPPRMTLRPLGVRLSSGVAISNSSLSLQDLDTPDNELIFVLMKKPDHGHLLRRSTASDPLENGTVLDQGSSFTYQDVLAGLVGYLPGDIYMAVDEFRFSLTDGLHVDTGRMEIYIELPSTNIPHLAINRGLQLSAGSVARITEQHLKATDTDSEAGQVVYIMKEDPGAGRLLMAKADNLEQISVRGPIRSFTQADVSQGQIEYSHGPGEPGGSFAFKFDVVDGEGNKLADQSFSIGVLEDKSPPVVITNRGLVLDENSVEKITTAQLSATDQDSKPTELIYRITTQPQLGHLEHVASPGIQISSFTQADLASRNVQYVRSSGTGKQSDAFSFVLSDGLHEVTQTFPITIHPVDDARPLVQNRGMRVQEGVRKTITEFELKAVDVDTEAESITFTIVQPPRHGTIERTARGQRFHQTSSFTMEDIYQNRVSYSHDGSNSLKDRFTFTVSDGTNPFFIIEEGGEEIMTAAPQQFHVDILPVDDGTPRIVTNLGLQWLEYMDGKATNLITKKELLTVDPDTEDSQLIYEVTTGPMHGYLENKLQPGRAAATFTQEHVNLGLIRYVLYEEKIQKVMDSFQFLVKDSKPNV
B2: AMACO P2 (domain or fragment)
chain: SSSALCTTADPDCRVEPHPCERRTLETVRELAGNALCWRGSRQADTVLALPCPFYSWKRVFQTHPANCYRTICPGPCDSQPCQNGGTCIPEGVDRYHCLCPLAFGGEVNCAPKLSLECRIDVLFLLDSSAGTTLGGFRRAKAFVKRFVQAVLREDSRARVGIASYGRNLMVAVPVGEYQHVPDLIRSLDSIPFSGGPTLTGSALLQVAEHGFGSASRTGQDRPRRVVVLLTESRSQDEVSGPAAHARARELLLLGVGSEILQAELVKITGSPKHVMVHTDPQDLFSQIPELQRRL
modifications: two unusual glycan chains

How the values were obtained:
AMACO P2 = biological target: B2; experiment: SPR
Fras1 CSPG = biological target: B1; experiment: SPR

| Kd (AMACO P2) [nM] | Kd (Fras1 CSPG) [nM] | Binder |
| --- | --- | --- |
| 42 |  | B1 |
|  | 151 | B2 |
